Laboratory results reported in the DeepSol protein solubility set.

Test: soluble on expression in E. coli; label from the status in PepcDB or PDB records
In the case of “MTLSKQLKTYITERFKLNYQDTWSCETVDAVAEDVLPEKYIKNSPLEHKILNTFTYYNDELHEISIYPFLCYLDKELIAIGYLDNFDLDFIFLNDTHQIIIDERYLLQKGGELEHHHHHH”, the “soluble on expression in E. coli” value is reported as “not soluble”.
For “MTMHREPGGERYYYTWAWFEGPDDAAWRVTGHHTDSGEQYRLDWNLAERSLCVTDSLGRTRCHWWDAQGLVTAYRDEAGQMTTFRWSDEERLLLGMTDAQGGKWRYVYDRLGHLTETHDPLGRVEQTQWHPVWHQPETEVDAAGAAWRYEYDERGNLQAVSDPLHQRTVYGYDRHGQVVRITDARGGDKYLQWNEDGQLMRHTDCSGSQTAWFYDERTRLERVTDAESNSTRYSYDGNGHLTEVMFADGRTERYQPDAAGRLVKYTSPAGQITRWQRDGQGRVRRQTDATGRRTAYEYDAYGRLTTLTNENGESYRFRYDVLDRLTEQTDPGGSRRAYGYNALNAVTAVIYGGERGGEIRHGLERDAAGRLTAKTTPETRTEYRYDAADRLLEIRRRRHDAAEGGEPEVIRFSYDSAGNLLSEETAQGVLQHRYDVQGNRTETQMPDGRTLRYLYYGSGHLQQINLGRDVISEFTRDHLHREVQRSQGRLDTRRMYDRTGRLTRKPTCKGMRGVVPETFIDREYAYSGQDELLKKRHSRQGVTDYFYDTTGRITACRNEAYLDSWQYDAAANLLDRRQGETAQAGAGSVVPFNRITSYRGLHYRYDEYGRVVEKRGRNGTQHYRWDAEHRLTEVAVIRGSTVRRYGYVYDAPGRRVEKHELDAEGKPYNRTTFLWDGMRLAQECRLGRSSSLYIYSDQGSHEPLARVDRAAPGEADEVLYYHTDVNGAPEEMTDGRGNIVWEAGYQVWGNLTHEKETRPVQQNLRFQGQYLDRETGLHYNLYRFYDPDIGKFISGDPISIRGGINLYQYAPNPIKWIDPLGLYNGEGQRELGKYHVFHEHNLDITEYGLSDAEHFSRGNQAIYERMKNDPAFRREMQTKYPGVVEHVQPSSGGKFSTESPPGLTWHHENKPGVLSLVDRLDHKTYHKIYHPLEHHHHHH”, the “soluble on expression in E. coli” value was “soluble”.
With “MTMVQVTLEVNGRQVAHEAPPRMHLGDFLRDQARLTGTHLGCEHGVCGACTVLVDGQPVRSCITYAVACEGRQVTTIEGYDGDPVMARLRAAFTKYHALQCGYCTPGMLTTSRDIVLRLPDADEARVRVELSGNLCRCTGYMGIVGAVMSVLRDLREQPDAAVQALRAAAADGRLPAPRGEQPIAFQPFTPSAPAAAQAAPRPAAAASPASGKGNQIVDAFTVPFPAAEVWAFMVDLPAVAACLPGAVIEETDGQRVKGKIAIKFGPMAAAFNGAARLERDEEAMRAVFRGAGQDSLSQSRATGDIAYQVEAVSENETRVKVDLQYALQGPLAQFSRSGLVQDFVRRMIADFGKNVTARLRQPGGEALPQAQFNPVAMFFSVLWMRVKRWFGRGGLEHHHHHH” the “soluble on expression in E. coli” value was “not soluble”.
With “MTNFEYYRDFDDFQRRETINFFLSKFPLASQKQLQDFLEQARQAYVQLRQTNPAHLDWNQTLLYLAQKFLPEKQSEKDRLKKILVLQEQLKVRYEGEIKRQSQQNSELLIQLGQRDEEIIQMQQLFKEKERQLEVYQKQLNEAKEYNHKLEEHYNKTLEEALKEYEQQCTDAIHRRDEEIQAIFTSKLNEKNSEITQLQTYLQSAVDENEALQKQHKLVLFKNQKYEKMVSDLQVDLARIQEINNSLTSEKRDFQRANNDLVKQYNKLKNRLEQKLGEITNAQVNGQTHTVSLADTSQQFHRPQEAVIPQTQVISYTLDDMDDDMEVEETPPTTNKDLPRGATQPKRNSIKRVSKLID” the “soluble on expression in E. coli” value was “soluble”.
With “MTNLTFYAKIGISEEEHDSFVKEHQQISVLQGSDWAKIKNQWQNERIGIYKEEKQVASLSLLIKLLPLGRSIIYIPRGPVMDYLDRDLVAFTMKTLKDYGKTKKALFIKYDPAILLKQYALGQEEEEKPLALAAIKNLQEAGVHWTGLTMEIADSIQPRFQANIYTQENLEMQFPKHTRRLIKDAKQRGVKTYRVSQSELHKFSKIVSLTEKRKNISLRNEAYFQKLMTTYGDKAYLHLAKVNIPQKLDQYRQQLILINQDITRTQAHQKKRLKKLEDQKASLERYITEFEGFTDQYPEEVVVAGILSISYGNVMEMLYAGMNDDFKKFYPQYLLYPNVFQDAYQDGIIWANMGGVEGSLDDGLTKFKANFAPTIEEFIGEFNLPVSPLYHIANTMYKIRKQLKNKH” the “soluble on expression in E. coli” value was “not soluble”.
With “MTNNAVLQLRAERLARATRPFLARGNRVRRCQRCLLPLKSCLCDTLTPSQAKSRFCLVMFDTEPMKPSNTGRLIADILPDTAAFQWSRTEPPQALLELVQHPDYQPIVVFPASYAGEAREVISTPPAGKPPLFIMLDGTWPEARKMFRKCPYLDHLPVISVDLSRLSAYRLREIHAEGQYCTAEVAIALLDLAGDTEAATSLGEHFTRFKTRYLAGKTQHPGNVTALEHHHHHH” the “soluble on expression in E. coli” value was “not soluble”.
With “MTNNDKNKKIVPEVKGTLRSHMIELPEVIRNATGIRVFGKRLKSFVFSTDVAVIRNTNADAVIAVYPFTPQPVITAAIVLAADVPVFCGVGGGLTMGKRVVNLALDAEFKGAMGVVVNSPTPNDIIREVRETIDIPIIVTVVSEYEDVQARIDSGATILNVSGAKRTSHIVRSIREKFPSIPIIATGGNNEASIIETIEAGANAITYTPPTTGKIFGDTMNSYRKKFE” the “soluble on expression in E. coli” value was “not soluble”.
For “MTNNDPYHTLINEICALSLISTPERFYESANFKISEVDFTLQYQDRDEGRAVLIYGDMGALPTRNRDAALLALMDINFHMFSGVHSPVFSWNAQTSRVLLMGSVSLERASAEGVLLLMKSFADLANEWREHGFIGQVKTAGAPAEQPVATAAKRESLSASGKFQ”, the “soluble on expression in E. coli” value was “not soluble”.
For “MTNPGDGAAGAADRATLDHWRPRLAAIAAAAGQDDAAHDLGHLRRVWDAARAMLQAHPEADALVVLAASYLHDLVNLPKNHPERHLASRQAAAAARERLARAGFPAARLDAVAHAIEAHSFSAGIAPRTIEARIVQDADRLDALGPVGLVRMFHVGGSLGRALAHPSDPLAAQRALDDSRYTLDHIEAKLARLPHGMQTEAGRRLGEQRLAWLRDFRAAFSAQWGGGQLRLEHHHHHH”, the “soluble on expression in E. coli” value was “not soluble”.
With “MTNPWEVSDAEYQKNFAMFGQLTGGQPFMDAVTARNALMRSNLPTQVLSQIWALSDLDKDGRLDIREYSIAMRLALNCLAGIPIPPQLPPSLLVVPARNAPPTWPGSRHGSVDYSQTLPPAIDRRMSQSYIPSAPVSIAGTPSSRHNSISAGSPLNNDRNVFEGRQLENWAIPHHNKLKYSQLFNALDKERLGSLSSQVGRSALGLSGLPTNVLAHIWFLSDVNKDGKLSVDEYAISQYMIEMFKSGFALPKITPLELVRMCGISSRSANNTPELEPGAEPPQKSPAPKTFEDKRQDNLSKGQAELERRRRVLEEEEQRRRAEVEKKEREEEAKKNRERQEKERQAEVERQAELERQRIIEAQREEEEKKRRLEMERRREEDEKMRKVQMEKAKVKQMQVQMPEQKKWNFYNQKQQENERLAQRQQREKTLQFQLQALDEKVIDVEVDIGKAKEAVAEVTGFIERMRSTRDEKVARIKELQETNQKTAIESQELGHQLLQKQSAHKETTQRKSELEALRRKRDAIRKAIEDAALELSTEKEKSYNQTEILKTNKEKYKTDVYSKLVAKREEYRNSFELLVHAQTHARSKIGEFEAKSAPASAAPAPAPAPAPTTTNGFPANFNDAFGEFDKTDASQRFDADFGATSTADPFAQIAQAPAHSKGAVDQSAFNIHDTYKCRALFAFEARSEDELSFEPGDVIIVFQSHAAEPGWRAGQLREKVGWFPEAFVEAIAAVPTPGGDPPIQNMPPNMTPSSSVDQIGVKAARKAEIAAAMGLTEGGAPPASSAPAAAAVISQCIAQFQWRARNEEDLSFAKGDTIEVLEKQEMKWKGRNPAGEIGWFPKSYVKEVGATTSTTTPIVSPSKASAGAPGAAAGAQYDVVPSDVTLQASETAPQQQLYTVIYDFEAVETTDLALHVGDTILVLEKNDEWWKGRCNGREGIFPANYVEISVQQAGDPTPPTQAPTPAAPPTVLCEAKVVVDFVASAPNQLGIKVGEIVKIREKSAAGWWEGELIRNGKPIAGWFPGEYVKVLEEAASPATRATAVYDYEASQPDELGFKTGDVIIVTDKSEAEWWSGHREQDPSKSGLFPSNYVQQQ” the “soluble on expression in E. coli” value was “not soluble”.
With “MTNQNLQDFLDGVLLKEENLNKITEVSLEKGLPHLLDEGIHNEDNFQIFTSQKIVADMIKMVGVKEMKNVHTTVLEPTSGDGAFTCAILDLRLKNIKKSDSFLKEALTGLSTIYSVEIDEELVWLQRNNLYSIFLAFLKKHGIFNEELSLLVKKILMINVSWGELITETKDNENFVCNYDYFLRNKKTKKKPAKHKHEFPEGLFSNGEGKCKSLFVNWSFADVINEIAHNSNFYFAKIAKIPGEIIQFQIN” the “soluble on expression in E. coli” value was “not soluble”.
In the case of “MTNTLVENIYASVTHNISKKEASKNEKTKAVLNQAVADLSVAASIVHQVHWYMRGPGFLYLHPKMDELLDSLNANLDEVSERLITIGGAPYSTLAEFSKHSKLDEAKGTYDKTVAQHLARLVEVYLYLSSLYQVGLDITDEEGDAGTNDLFTAAKTEAEKTIWMLQAERGQGPAL”, the “soluble on expression in E. coli” value is reported as “soluble”.
In the case of “MTNVLWLQGGACSGNTMSFLNGEEPTACDLIANFGIKVLWHPSLGVELGNNLQTLLWDCVLGKTPLDILVFEGSVVNAPNGTGEWNRFADRPMKDWLIDLSQAAKFIVAVGDCATWGGIPAMSPNPSDSKGLQFLKRKEGGFLGKDFVSKAGLPVINIPGCPTHPDWITQILVAIATGRTDDIVLDELHRPQTFFNTYTQTGCTRNIHFAYKATTAEFGQRKGCLFYDLGCRGPMTHSSCNRILWNRISSKTRAGMPCLGCTEPEFPFFDLKPGTVFKTQTVMGVPKEIPPGVNHRDYAVLTVVAKDAAPKWADEDFFTV”, the “soluble on expression in E. coli” value is reported as “not soluble”.
In the case of “MTPFPAYVPPDFTRPDLAAAPPVRVAEAPGSGVLPAGFHATSNYPEYVHLGGGRWLLASGSRMDAVLVLDGDMLRVVEPRLVRRGDRVVVGRTENGEEGIYVHTTGFDAPAGAGGDKFTFRSRGTRESPFSRSYEELYDILRHDRDHGHIVWVLGPAVAFDRDSRAAMAGLIGGGYCHALLAGNALATHDLEAALFHTGLGQDIYTQALVAGGHYHHLDVINEVLRHGSLERAIAELGIRDGIIRACLEHRVPVVLAGSIRDDGPLPDVITDSRQAQDAMRAHARRATTVIALATQLHAIAVGNMTPSYRVLDDGTVRPVYFYIVDMSEFGADKLANRGSGQARAILTNVQDFMVNLWNNLKG”, the “soluble on expression in E. coli” value is reported as “not soluble”.
In the case of “MTQEAIFKAIREREMKVLNIQVTSSCNYACGMCPFHGDGYSGEYFDERPTIRRDMSLDEIKLILEKASMEGFEWIDLTPNGEFFTHKQWYQILSLIKEFGLKIMITSNGGLLGEEDIKRACEVGVDHIVISVDSLSYESYKKIRKPATKLAFERAIHAPLYFKKYGGDSIYVQIQITEQPEFPHEALGVLDFYKDKGLNQISLKKMFVTGEDGIGHIGVEKLEYTHGKCKAYGSPIVMTDGTVLPCCGAFYFYPKLGEKIPNIFNHTIFESARILDDLYERDSLFGSYCRNCSLYDSSRKAAPVKFIFGDYYAEQTLFETRYFILPKYLRFLPSLAILWLYKKGYARKIKQWLVAAQ”, the “soluble on expression in E. coli” value is reported as “not soluble”.
With “MTQPLFLIGPRGCGKTTVGMALADSLNRRFVDTDQWLQSQLNMTVAEIVEREEWAGFRARETAALEAVTAPSTVIATGGGIILTEFNRHFMQNNGIVVYLCAPVSVLVNRLQAAPEEDLRPTLTGKPLSEEVQEVLEERDALYREVAHIIIDATNEPSQVISEIRSALAQTINC” the “soluble on expression in E. coli” value was “soluble”.
With “MTQQKLELTWFNKDQALIPQERGRYGYAWVDPHDPRYCQTHYLIEGETITGEQAPKQDGTQYGERADLEPTTDNLLINGESGDVLEALTRVPELADKYVGKVKCIYIDPPFNTAQTFANYEDNLEHSVWLTMMRDRLLHMKKLLSEDGSIWVHLDDVENHRMRLLMDEVFGAGNFVAEVVWEKTYSPRNDSKGIPAVTDTILVYRKSDQFSPNRLPRTAEMNARYKNPDHDRNGPWKSGDTTAPGNMSGKVQHPSVFAIQHPVTGQFIYPTYGRMWCFGQERILSSLSRYAPYRLAEPDMKSRSKRTGIPEEQLRADVFDLVVDETARQGDKTQAFRNISLGNWPEFFITDKGFGRKVPMSKSDGRVAPNLLRWEEVGHTDGAKKEITALFPNQAA” the “soluble on expression in E. coli” value was “not soluble”.
